# Experimental data: paper PMC3333882 (Nucleic Acids Research, 2011)
# Biological target: MEF2C-Flag (myocyte enhancer factor 2C with Flag tag) (UniProt Q8CFN5 1-474)
# Assay: co-IP
# MEF2C-Flag (myocyte enhancer factor 2C with Flag tag), sequence (Q8CFN5 whole entry): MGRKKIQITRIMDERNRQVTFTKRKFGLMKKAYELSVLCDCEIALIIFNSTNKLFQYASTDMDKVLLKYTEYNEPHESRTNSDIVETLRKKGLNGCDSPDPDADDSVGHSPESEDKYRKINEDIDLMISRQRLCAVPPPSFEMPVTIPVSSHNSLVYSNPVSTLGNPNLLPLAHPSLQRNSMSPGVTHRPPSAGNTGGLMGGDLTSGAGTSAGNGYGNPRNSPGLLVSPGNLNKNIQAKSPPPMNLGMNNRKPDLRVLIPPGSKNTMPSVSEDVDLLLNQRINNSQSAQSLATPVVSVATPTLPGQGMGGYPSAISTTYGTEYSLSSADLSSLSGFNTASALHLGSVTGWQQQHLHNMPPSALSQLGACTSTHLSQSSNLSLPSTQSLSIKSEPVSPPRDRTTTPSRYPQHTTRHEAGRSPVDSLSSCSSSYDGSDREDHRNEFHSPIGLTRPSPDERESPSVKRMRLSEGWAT
binder,measurement,value
"Gli2 (glioma-associated factor 2) (natural protein, mouse, UniProt Q0VGV1 1-1540, looked up) METSAPAPALEKKEAKSGLLEDSSFPDPGKKACPLAVAAAVAAHGVPQQLLPAFHAPLPIDMRHQEGRYHYDPHSVHSVHGPPTLSGSPFISDISLIRLSPHPAGPGESPFSAHHPYVNPHMEHYLRSVHSSPTLSMISAARGLSPADVAHEHLKERGLFSLAAPGTNPSDYYHQMTLMASHPTPYGDLLMQSGGAASAPHLHDYLNPVDASRFSSPRVTPRLSRKRALSISPLSDASLDLQRMIRTSPNSLVAYINNSRSSSAASGSYGHLSAGALSPAFTFPHPINPVAYQQILSQQRGLGSAFGHTPPLIQPSPTFLAQQPMTLTSISTMPTQLSSSSSNCLNDANQNKQNSESAVSSTVNPITIHKRSKVKTEAEGLRPASPLGLTQEQLADLKEDLDRDDCKQEAEGVIYETNCHWADCTKEYDTQEQLVHHINNEHIHGEKKEFVCRWQACTREQKPFKAQYMLVVHMRRHTGEKPHKCTFEGCSKAYSRLENLKTHLRSHTGEKPYVCEHEGCNKAFSNASDRAKHQNRTHSNEKPYICKIPGCTKRYTDPSSLRKHVKTVHGPDAHVTKKQRNDVHVRAPLLKENGDNEASAEPGGRGPEESVEASSTSHTVEDCLHIKAIKTESSGLCQSSPGAQSSCSSEPSPLGSAPNNDSGMEMPGTGPGSLGDLTALADTCPGADTSALAAPSTGGLQLRKHMSTVHRFEQLKREKLKSLKDSCSWAGPAPHTRNTKLPPLPVNGSVLENFNNTGGGGPAGLLPSQRLPELTEVTMLSQLQERRDSSTSTMSSAYTVSRRSSGISPYFSSRRSSEASPLGGLRPHNASSADSYDPISTDASRRSSEASQCSGGGPGLLNLTPAQQYNLRAKYAAATGGPPPTPLPGLDRVSLRTRLALLDAPERALPGACPHPLGPRRGSDGPTYSHGHGHGYAGAAPAFPHEGPNSSTRRASDPVRRPDPLILPRVQRFHSTHNMNPGSLPPCADRRGLHVQSHPSVDSNLTRNAYSPRPPSINENVVMEAVAAGVDGPGLECDLGLVEDELVLPDDVVQYIKAHTGGTLDDGIRQGYPTEGTGFPENSKLPSPGLQGHRRLAAADSNMGPSAPGLGGCQLSYSPSSNLNKSNMPVQWNEVSSGTVDALPTQVKPPPFPHSNLAVVQQKPAFGQYPGYNPQSVQSSSGGLDSTQPHLQLRGAPSASRGSYTQQPRQPAAGSQCLGMSAAMSPQASYSQAHPQLSPNIVSGSLNQFSPSCSNMAAKPSHLGLPQQMEVVPNATIMNGHQREHGVPNSSLAAVSQPHPVLSYPQQDSYQQGSNLLSSHQPGFMESQQNAGFGLMQPRPPLEPNTASRHRGVRSGQQQLYARTTGQAMVTSANQETAEAMPKGPAGTMVSLAPQPSQDTGRAQDQNTLYYYGQIHMYEQNGGCPAVQPQPPQPQACSDSIQPEPLPSPGVNQVSSTVDSQLLEPPQIDFDAIMDDGDHSSLFSGALSPTLLHNLSQNSSRLTTPRNSLTLPSIPAGISNMAVGDMSSMLTSLAEESKFF",fold amount co-immunoprecipitated against the Flag-vector control,4 fold
